Experiments:
[1] = target: YU2gp140 (cleavage-deficient, trimeric HIV-1 Env gp140 with T4 fibritin trimerization motif) (HIV-1 isolate YU2 | bacteriophage T4); test: SEC
[2] = target: YU2gp140:gpD fusion protein (HIV-1 isolate YU2 | bacteriophage T4 | bacteriophage lambda); test: SEC

Substance | stoichiometry N [1] | stoichiometry N [2]
YU2gp140 (cleavage-deficient, trimeric HIV-1 Env gp140 with T4 fibritin trimerization motif) | 3 | –
YU2gp140:gpD fusion protein | – | 3
